Experimental data taken from paper PMC8881453, “Cryo-EM structure of translesion DNA synthesis polymerase ζ with a base pair mismatch” (Nature Communications, 2022).

B1: Rev7, accessory subunit of DNA polymerase ζ (Polζ) (natural protein, Saccharomyces cerevisiae, UniProt P38927 1-245, looked up)
chain: MNRWVEKWLRVYLKCYINLILFYRNVYPPQSFDYTTYQSFNLPQFVPINRHPALIDYIEELILDVLSKLTHVYRFSICIINKKNDLCIEKYVLDFSELQHVDKDDQIITETEVFDEFRSSLNSLIMHLEKLPKVNDDTITFEAVINAIELELGHKLDRNRRVDSLEEKAEIERDSNWVKCQEDENLPDNNGFQPPKIKLTSLVGSDVGPLIIHQFSEKLISGDDKILNGVYSQYEEGESIFGSLF
notes: Rev7, Saccharomyces cerevisiae, accessory subunit of Polζ, full-length (residues 1-245); Two copies (Rev7A and Rev7B) stand in the pentameric holoenzyme; also called Rev7B; source: expressed in yeast from plasmids pBJ1462 and pBJ1524, purified as the Polζ holoenzyme
B2: A:C mismatched palindromic template-primer (dsDNA)
DNA 1: TAATGATAGGGGAGGGAATCCCTCCCCTAC
DNA 2: B2 DNA 1
modifications: 3'-dideoxy C terminus
B3: Pol31, accessory subunit of DNA polymerase ζ (Polζ) (natural protein, Saccharomyces cerevisiae, UniProt P46957 1-487, looked up)
chain: MDALLTKFNEDRSLQDENLSQPRTRVRIVDDNLYNKSNPFQLCYKKRDYGSQYYHIYQYRLKTFRERVLKECDKRWDAGFTLNGQLVLKKDKVLDIQGNQPCWCVGSIYCEMKYKPNVLDEVINDTYGAPDLTKSYTDKEGGSDEIMLEDESGRVLLVGDFIRSTPFITGVVVGILGMEAEAGTFQVLDICYPTPLPQNPFPAPIATCPTRGKIALVSGLNLNNTSPDRLLRLEILREFLMGRINNKIDDISLIGRLLICGNSVDFDIKSVNKDELMISLTEFSKFLHNILPSISVDIMPGTNDPSDKSLPQQPFHKSLFDKSLESYFNGSNKEILNLVTNPYEFSYNGVDVLAVSGKNINDICKYVIPSNDNGESENKVEEGESNDFKDDIEHRLDLMECTMKWQNIAPTAPDTLWCYPYTDKDPFVLDKWPHVYIVANQPYFGTRVVEIGGKNIKIISVPEFSSTGMIILLDLETLEAETVKIDI
notes: Pol31, Saccharomyces cerevisiae, accessory subunit of Polζ, full-length (residues 1-487); source: expressed in yeast from plasmids pBJ1462 and pBJ1524, purified as the Polζ holoenzyme
B4: Pol32, accessory subunit of DNA polymerase ζ (Polζ) (natural protein, Saccharomyces cerevisiae, UniProt P47110 1-350, looked up)
chain: MDQKASYFINEKLFTEVKPVLFTDLIHHLKIGPSMAKKLMFDYYKQTTNAKYNCVVICCYKDQTIKIIHDLSNIPQQDSIIDCFIYAFNPMDSFIPYYDIIDQKDCLTIKNSYELKVSESSKIIERTKTLEEKSKPLVRPTARSKTTPEETTGRKSKSKDMGLRSTALLAKMKKDRDDKETSRQNELRKRKEENLQKINKQNPEREAQMKELNNLFVEDDLDTEEVNGGSKPNSPKETDSNDKDKNNDDLEDLLETTAEDSLMDVPKIQQTKPSETEHSKEPKSEEEPSSFIDEDGYIVTKRPATSTPPRKPSPVVKRALSSSKKQETPSSNKRLKKQGTLESFFKRKAK
notes: Pol32, Saccharomyces cerevisiae, accessory subunit of Polζ, full-length (residues 1-350); The full-length protein was in the sample; also called Pol32N; source: expressed in yeast from plasmids pBJ1462 and pBJ1524, purified as the Polζ holoenzyme

What was measured:
[1] = target: T1, Polζ holoenzyme (Rev3-Rev7-Pol31-Pol32) (Saccharomyces cerevisiae, UniProt P14284); experiment: cryo-EM structure, […] Å; assay type: binding; conditions: ternary complex with dideoxy-terminated A:C mismatched primer-template DNA, templating G; 1 mM dCTP; CaCl2 (Ca2+ metal B); Rev3 active site, fingers open
T1 construct: full-length subunits, holoenzyme expressed in yeast from plasmids pBJ1462 and pBJ1524; pentameric complex with two Rev7 (Rev7A, Rev7B); with DNA polymerase zeta processivity subunit; DNA polymerase delta small subunit; DNA polymerase delta subunit 3

[2] = target: T2, Rev3, catalytic subunit of DNA polymerase ζ (Polζ) (Saccharomyces cerevisiae, UniProt P14284 1-1504); experiment: cryo-EM structure; Polζ holoenzyme incubated in a CaCl2 supplemented buffer with palindromic DNA (1.5 molar excess) with an A:C mismatch at the primer terminus, 1 mM dCTP; nominal resolution 3.05 Å; conditions: both partners purified
T2 construct: Rev3, Saccharomyces cerevisiae, catalytic subunit of Polζ, full-length (residues 1-1,504); also called catalytic Rev3; source: expressed in yeast from plasmids pBJ1462 and pBJ1524, purified as the Polζ holoenzyme

[3] = target: B4; experiment: as above; conditions: both partners purified
Rev3 (Polζ catalytic …) = target: Rev3 (Polζ catalytic subunit);Rev7;Pol31;Pol32 (Saccharomyces cerevisiae;Saccharomyces …, UniProt P14284;P38927;P46957;P47110 1-1504;1-245;1-487;1-350, |||); experiment: cryo-EM structure (3.05 Å); 1 mM dCTP, CaCl2; metal ion B; CaCl2-supplemented buffer, DNA in 1.5 molar excess, 1 mM dCTP; salt, pH and temperature not given; conditions: protein: recombinant;recombinant;recombinant;recombinant; tags: ;;;; copies: 1;2;1;1; self-annealed palindrome, 2 copies of one strand; 5' overhang 5 nt (TAATG, templating G); A6:C30 mismatch at primer terminus; central A:A
[4] = target: B3; experiment: cryo-EM structure; Polζ holoenzyme incubated in a CaCl2 supplemented buffer with palindromic DNA (1.5 molar excess) with an A:C mismatch at the primer terminus, 1 mM dCTP; nominal resolution 3.05 Å; conditions: both partners purified

T2 sequence (P14284 whole entry, the tested form may be a part): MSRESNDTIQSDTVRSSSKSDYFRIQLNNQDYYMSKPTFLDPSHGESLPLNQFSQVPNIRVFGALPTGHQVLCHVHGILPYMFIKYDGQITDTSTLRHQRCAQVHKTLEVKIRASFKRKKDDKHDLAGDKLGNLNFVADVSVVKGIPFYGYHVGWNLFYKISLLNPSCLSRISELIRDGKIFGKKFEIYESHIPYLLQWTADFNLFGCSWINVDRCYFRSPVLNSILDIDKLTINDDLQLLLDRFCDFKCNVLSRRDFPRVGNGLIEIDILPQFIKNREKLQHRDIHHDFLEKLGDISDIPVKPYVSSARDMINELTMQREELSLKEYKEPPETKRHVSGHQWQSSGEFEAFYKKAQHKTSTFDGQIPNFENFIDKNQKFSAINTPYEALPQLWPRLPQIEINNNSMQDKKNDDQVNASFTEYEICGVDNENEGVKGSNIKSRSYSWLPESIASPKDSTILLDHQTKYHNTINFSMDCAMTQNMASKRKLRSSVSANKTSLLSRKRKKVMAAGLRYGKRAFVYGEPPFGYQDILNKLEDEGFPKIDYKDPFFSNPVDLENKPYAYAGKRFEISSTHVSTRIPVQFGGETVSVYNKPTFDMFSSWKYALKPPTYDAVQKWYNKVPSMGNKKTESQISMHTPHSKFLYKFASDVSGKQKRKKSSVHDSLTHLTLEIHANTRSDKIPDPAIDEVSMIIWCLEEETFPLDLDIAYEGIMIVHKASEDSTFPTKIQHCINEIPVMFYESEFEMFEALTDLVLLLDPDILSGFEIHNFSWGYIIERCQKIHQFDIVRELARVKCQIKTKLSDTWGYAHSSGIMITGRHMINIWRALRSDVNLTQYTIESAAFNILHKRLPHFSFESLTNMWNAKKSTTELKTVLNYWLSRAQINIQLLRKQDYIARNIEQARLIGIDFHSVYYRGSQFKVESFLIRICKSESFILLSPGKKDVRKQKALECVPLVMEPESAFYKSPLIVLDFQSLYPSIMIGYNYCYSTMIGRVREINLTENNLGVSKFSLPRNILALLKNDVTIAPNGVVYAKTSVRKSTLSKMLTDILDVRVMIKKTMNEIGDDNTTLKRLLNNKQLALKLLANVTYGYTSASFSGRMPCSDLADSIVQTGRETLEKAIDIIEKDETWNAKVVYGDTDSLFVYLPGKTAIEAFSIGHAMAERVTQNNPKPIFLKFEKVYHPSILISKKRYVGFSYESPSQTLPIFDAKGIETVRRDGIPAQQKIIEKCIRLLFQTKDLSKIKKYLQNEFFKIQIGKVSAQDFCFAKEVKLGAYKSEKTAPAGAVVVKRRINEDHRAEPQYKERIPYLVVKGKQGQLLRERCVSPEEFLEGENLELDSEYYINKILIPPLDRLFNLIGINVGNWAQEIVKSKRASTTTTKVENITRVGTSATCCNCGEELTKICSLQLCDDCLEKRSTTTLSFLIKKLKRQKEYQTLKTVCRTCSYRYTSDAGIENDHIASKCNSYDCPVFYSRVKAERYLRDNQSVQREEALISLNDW
T1 sequence (P14284 whole entry, one chain of several): as the sequence (P14284 whole entry, the tested form may be a part) above
Chain of Rev3 (Polζ catalytic subunit);Rev7;Pol31;Pol32 (P14284 whole entry, one chain of several): as the sequence (P14284 whole entry, the tested form may be a part) above

## Nc1ccn([C@H]2C[C@H](O)[C@@H](COP(=O)(O)OP(=O)(O)OP(=O)(O)O)O2)c(=O)n1 [dCTP]
[1]
  cryo-EM structure, 3.05 Å: Rev3 is observed with the incoming nucleotide dCTP (position P0) opposite the templating base G

## B1
[2]
  binding result: binds
[3]
  binding result: binds

## B2
Rev3 (Polζ catalytic …)
  binding result: binds

## B3
[2]
  binding result: binds

## B4
[4]
  binding result: binds
